Here are results for 4 molecules from publication PMC5354205, “Structure and assembly of scalable porous protein cages” (Nature Communications, 2017).

Values joined by “and” are separate entries in the source; they are usually repeats but may differ in a detail not shown here. Equal entries are not always repeated.

Data set [1] deals with AaLS-neg (lumazine synthase from Aquifex aeolicus with R83E, T86E, T120E, Q123E), C-terminal His6-tag (Aquifex aeolicus) (UniProt O66529). The data set can be described thus: cryo-EM structure; single-particle reconstruction; 20 mM Tris-HCl pH 7.8, 0.2 M NaCl, 5 mM EDTA; monomer 80, 80 and 300 uM; Titan Krios 300 kV.
For data set [2], the target named is lumazine synthase from Aquifex aeolicus, wild-type protein (AaLS-wt), C-terminal His6-tag (Aquifex aeolicus) (UniProt O66529). The description is as above.
The target is the same in data set [3]. The data set can be described thus: native MS; 5 uM monomer in 150 mM ammonium acetate, 25 mM triethylammonium acetate, pH 7.8; modified qTOF, nano-electrospray, positive ion mode; subunit copy number of the cage.
Data set [4] deals with the molecule itself. The data set can be described thus: native MS; AaLS-neg pre-incubated in low ionic strength buffer: 10 mM ammonium acetate, pH 7.8; cage dissociated into smaller capsomers.
Data set [5] concerns the molecule itself. The data set can be described thus: native MS; 5 uM monomer in 150 mM ammonium acetate, 25 mM triethylammonium acetate, pH 7.8; modified qTOF, nano-electrospray, positive ion mode; subunit copy number of the cage.

For the molecule “AaLS-neg (lumazine synthase from Aquifex aeolicus with R83E, T86E, T120E, Q123E), C-terminal His6-tag (from UniProt O66529 1-154)”, in data set [1], the stoichiometry N was 180.

As for “lumazine synthase from Aquifex aeolicus, wild-type protein (AaLS-wt), C-terminal His6-tag (from UniProt O66529 1-154) (enzyme)”, the stoichiometry N in data set [2] and in data set [3] was 60 throughout.

B1: AaLS-neg lacking a His6-tag (pMG211_AaLS-neg_noHis) (other, Aquifex aeolicus, UniProt O66529 1-154, looked up)
chain: MEIYEGKLTAEGLRFGIVASRFNHALVDRLVEGAIDCIVRHGGREEDITLVRVPGSWEIPVAAGELARKEDIDAVIAIGVLIEGAEPHFDYIASEVSKGLANLSLELRKPITFGVITADELEEAIERAGTKHGNKGWEAALSAIEMANLFKSLR
notes: lumazine synthase, Aquifex aeolicus, with four lumenal residues mutated to glutamate; Made for native MS; 180-mer in 150 mM ammonium acetate; pentamers, 10-mers and 15-mers after low ionic strength; source: E. coli BL21-gold (DE3), purified (lysate heated at 85 °C, MonoQ anion exchange, SEC Sephacryl S-400); copies: 180
In the case of B1, the “stoichiometry N” value is 5 and 10 and 15 in data set [4]; 180 in data set [5].

B2: AaLS-13 lacking a His6-tag (pMG211_AaLS-13_noHis) (other, Aquifex aeolicus, UniProt O66529 1-154, looked up)
chain: MEIYEGKLTAEGLRFGIVASRFNHALVGRLVEGAIDCIVRHGGREEDITLVCVPGSWEIPVAAGELARKEDIDAVIAIGVLIEGAEPHFDYIASEVSKGLANLSLELRKPISFGDITDDELEEAIECAGTEHGNKGWEAALSAIEMANLFKSLR
notes: lumazine synthase, Aquifex aeolicus, with the four mutations of AaLS-neg and seven more from directed evolution; Made for native MS; charge states not resolved, the copy number only estimated (240 to 420); source: E. coli BL21-gold (DE3), purified (ammonium sulphate, MonoQ anion exchange, SEC Sephacryl S-400; 3 mM DTT added)
B2: the “stoichiometry N” value in data set [5] fell in the range of 240 to 420.
